Test results from patent US20260022364A1, “ERT2 MUTANTS, INDUCIBLE CELL DEATH SYSTEMS, AND USES THEREOF” (Senti Biosciences, Inc., priority 2023, published 2026).
Changes are numbered by the printed parent chain. Numbers in names are those of the source.

Columns and labels:
Assay type in all cases: cell-based
[1] = tested on: dimerization of two modified ER-LBDs; assay: Transcriptional reporter assay for dimerization activity; conditions: data not shown
NK cells = assay: Validation of ERT2 mutants with mCherry reporter in NK cells; conditions: primary NK cells
Experimental: After 10 days of feeder cell activation, NK cells were co-transduced with ERT2 mutant virus and reporter SB01066 virus (Experimental Set-up 1). On Day 2 after transduction, transduced NK cells were treated with endoxifen or 4-OHT at a range of concentrations of 0 nM, 0.01 nM, 0.1 nM, 1 nM, and 10 nM. On Day 4, cells were checked for mCherry expression by flow cytometry.

HEK293T cells [2] = assay: Suicide-switch assay, killing efficiency by incucyte; conditions: for killing efficiency: 48 hours
Experimental: A 24-well dish was seeded with 25,000 Lent-X HEK293T cells (Takara, Catalog #: 632180). The next day, the cells were transduced with 25,000 pg of virus for constructs SB07351-SB07354: ERT2mut-casp9 constructs tagged with mCherry to track successfully transduced cells in a population. The constructs each take the form ERT2*mut-Casp9-IRES-RFP (SB07351=mut81; SB07352=mut88; SB07353=mut63; SB07354=mut41). The next day, transduced cells were split into a 96-well plate with ˜5,000 cells in each well and loaded into an incucyte to quantify cell expansion via images every 2 hours detecting mCherry expression. Media was exchanged 24 hours later with new media with indicated concentration of 4-OHT or no drug added. Cells continued to be imaged by the incucyte every 2 hours for 48 hours post exchange of media.
Cell death was quantified via detection of suicide-switch linked mCherry expression using the following formula:
Killing efficiency=100−((mCherry expression in drug treated population)/(mCherry expression in ND population)) [NOTE: mCherry background prevents 100% KE from being calculated; >95% killing efficiency is considered complete killing in this assay]

primary T cells = assay: Killing assay of safety kill switch in transduced primary T cells
Experimental: Primary T cells isolated from a donor were thawed and stimulated with Dynabeads for 24 hours. Next, ERT2*mut81-Casp9-IRES-RFP (SB07351, prepared as lentivirus) was transduced into the T cells. Two days post transduction, cell media were replaced with T Cell media containing IL-2 to promote expansion. 1 week post transduction, cells were quantified for transduction efficiency (Safety kill switch transduction was tracked by expression of RFP tag) by flow cytometry and then loaded into incucyte for quantification of killing efficiency.
• D0-D1: Expansion of cells in drug free T cell media (with IL-2) • D1-onward: Drug free T cell media (with IL-2) was exchanged with media containing indicated drug conditions (as well as IL-2) • Killing efficiency was calculated by the following formula:
1−(RFP expression of cells in drug treated conditions)/(RFP expression of transduced cells in the No Drug condition)

HEK293T cells [3] = assay: Time course of ERT2 mutant safety switch activity in HEK cells
Experimental: Twenty-four hours later, ˜3k transduced cells were plated into each well of a 96w plate and cultured in 100 μL of drug-free growth media (DMEM+10% FBS, 1% p-s, 1% Glutamax).
Killing efficiency was calculated by taking the average mCherry area quantified by the incucyte in the drug treated sample divided by the mCherry area quantified in the ND conditions of the same transduced population and subtracting that fraction from 1. 95% KE was defined as complete killing by previous studies with this same mCherry reporter being treated with Puromycin, a toxic drug that results in complete killing of HEK293T cells within 48 hours of application.

U87MG: 1066 cells = assay: Modified ER-LBD validation in U87MG with mCherry reporter; conditions: SB01066 reporter
Experimental: About 16 hours before transduction 100k U87MG: 1066 cells were seeded into 16 wells in 12 well plate format. During transduction, cells in each well were transduced with 100k pg of virus of ERT2 variant constructs. After transduction, cells were split into 50k cells per well in a 24 well plate format, and treated with drug-free media or a range of endoxifen or 4-OHT drug conditions. About two days after treatment of cells with endoxifen or 4-OHT, cells were collected and mCherry reporter expression was quantified by flow cytometry.
Screening of the modified ER-LBD construct library identified a subset of ERT2 variants that were sensitive to endoxifen at 1 nM. Among this subset, 15 variants (Table 19) were validated in U87MG cells for their ability to activate an mCherry reporter (SB01066; FIG. 14B) at a range of concentrations of 0 pM, 10 pM, 50 pM, 100 pM, and 1 nM of endoxifen (FIG. 15A) and 4-OHT (FIG. 15B). Expression of mCherry was quantified about […] after treatment with endoxifen or 4-OHT.
Select ERT2 variants (Table 20) from the previous screens were further tested for sensitivity to endoxifen and 4-OHT, compared to wild-type ERT2. […] Fold activation was calculated by gMFI mCherry levels of each test condition divided by gMFI mCherry levels of U87MG cells transduced with the reporter (SB01066).

[4] = tested on: U87MG: 1066 reporter cell line; assay: ERT2 mutant transcriptional switch activity, mCherry reporter; conditions: range of endoxifen concentrations
Experimental: FIG. 26A depicts constructs and experimental methods for evaluating exemplary ERT2 mutant transcriptional switches. U87MG cells were transduced with the mCherry reporter construct SB01066, comprising synthetic promoter comprising a 4×ZF-10 zinc finger binding site (SEQ ID NO: 59) linked to a minimal promoter operably linked to an mCherry encoding sequence. This generated a U87MG: 1066 reporter cell line used for assessing transcriptional switch activity of ERT2 transcriptional switch constructs.
25k U87MG: 1066 reporter transduced line was transduced at a MOI of 1 with various ERT2 transcriptional switch constructs having the following structure: pSFFV: ZF10-1 (zinc finger DNA binding domain, SEQ ID NO: 84)_TCR linker (SEQ ID NO: 86)_p65 (transcriptional activation domain, SEQ ID NO: 64)_[…] linker (SEQ ID NO: 88)_ERT2 domain. The ERT2 mutants included a number of amino acid substitutions in addition to the “WT ERT2” mutations G400V/M543A/L544A/V595A.
The next day, cells were split into no drug or drug titration conditions to evaluate performance at a range of endoxifen and estradiol concentrations. Performance of each ERT2 mutant transcriptional switch was evaluated by their ability to translocate and bind to the zinc finger binding site upstream of mCherry and initiate mCherry expression.
The background normalized ND (0) conditions were divided by the average NV gMFI mCherry value in order to reflect any basal activity seen by each mutant. FIG. 26C depicts induced mCherry expression plotted against basal activity for each of the tested ERT2 transcriptional switch constructs.

[5] = tested on: U87MG: 2357 reporter cell line; assay: ERT2 mutant transcriptional switch inducing an IL-12 payload (IL-12p70 ELISA); conditions: 72 hours
Experimental: FIG. 28A depicts constructs and experimental methods for evaluating exemplary ERT2 mutant transcriptional switches for inducing expression of an IL-12 payload. U87MG cells were transduced with construct SB02357, comprising synthetic promoter comprising a 4×ZF-10 zinc finger binding site (SEQ ID NO: 59) linked to a minimal promoter operably linked to an IL-12 encoding sequence. This generated a U87MG: 2357 reporter cell line used for assessing the ability of ERT2 transcriptional switch constructs to activate transcription of the IL-12 payload in a ligand-dependent manner.
25k U87MG: 2357 IL-12 payload transduced line was transduced with MOI of 1 of the ERT2 constructs SB03422, SB06149, SB09626, SB09642, SB09652, and SB09657, which are described in Example 9. […] The next day, cells were split into ND or drug titration conditions to evaluate performance at a range of Endoxifen and concentrations. 72 hours later, supernatant was harvested for quantification of IL-12 by IL-12p70 ELISA. IL-12 levels were read with a spectrophotometer at wavelength 450 nm with wavelength correction to 540 nm according to manufacturer's protocol. A kit-provided standard to calculate detected levels of IL-12 in 100 μL of media harvested from ˜100k cells based on OD.

B1: SB06136: ZF10-1_p65_ERT2 mutant; L384M/L391V/N413D/M421L/S463P/H524L (protein)
chain: AGDMRAANLWPSPLMIKRSKKNSLALSLTADQMVSALLDAEPPILYSEYDPTRPFSEASMMGLLTNLADRELVHMINWAKRVPGFVDLTLHDQVHLLECAWMEILMIGVVWRSMEHPVKLLFAPNLLLDRDQGKCVEGLVEIFDMLLATSSRFRMMNLQGEEFVCLKSIILLNSGVYTFLPSTLKSLEEKDHIHRVLDKITDTLIHLMAKAGLTLQQQHQRLAQLLLILSHIRHMSNKGMELLYSMKCKNVVPLYDLLLEAADAHRLHAPTSRGGASVEETDQSHLATAGSTSSHSLQKYYITGEAEGFPAT
dimerization of two modified ER-LBDs to 4-OHT [1]: did not directly alter dimerization
4-OHT concentration at which variant was sensitive (mCherry) (NK cells): 0.1 nM
endoxifen concentration at which variant was sensitive (mCherry) (NK cells): 0.1 nM

B2: SB07351: suicide-switch construct ERT2*mut-Casp9-IRES-RFP with mut81 (protein)
chain: B1 chain
killing efficiency (HEK293T cells [2]; 0.001 pM of 4-OHT): ~80%
killing efficiency (HEK293T cells [2]; down to 0.01 pM of 4-OHT): > 95%
concentration of efficient killing, fold lower than the Ctrough of 4-OHT in humans (HEK293T cells [2]; humans taking FDA approved daily dose of Tamoxifen): 400 ×
time to complete killing (primary T cells; 2.5 nM Endoxifen & 0.4 nM 4-OHT): ≤ 48 h
cell killing without inducer (primary T cells; absence of the small molecule inducer cocktail): did not induce cell killing
sensitivity to Estradiol (primary T cells; day 5, Estradiol 2.2 pM): insensitivity
killing efficiency (primary T cells; day 5, endoxifen 1 pM and higher): >= 95%
killing efficiency (primary T cells; day 5, endoxifen as low as 0.001 pM): Strong killing efficiency
sensitivity to Estradiol (primary T cells; over time, 2.2 pM Estradiol): insensitive
killing efficiency and rate compared to the WT ERT2 safety switch (HEK293T cells [3]; 0.25 nM endoxifen and 0.04 nM 4-OHT, 2.5 nM endoxifen+0.4 nM 4-OHT): greater killing efficiency, and at a faster rate
sensitivity to Estradiol (HEK293T cells [3]; 2.5 nM estradiol, long exposure times): modest activity at late time points

B3: wild-type ERT2: ERT2 with G400V/M543A/L544A/V595A, SEQ ID NO: 3; benchmark construct (protein)
chain: SAGDMRAANLWPSPLMIKRSKKNSLALSLTADQMVSALLDAEPPILYSEYDPTRPFSEASMMGLLTNLADRELVHMINWAKRVPGFVDLTLHDQVHLLECAWLEILMIGLVWRSMEHPVKLLFAPNLLLDRNQGKCVEGMVEIFDMLLATSSRFRMMNLQGEEFVCLKSIILLNSGVYTFLSSTLKSLEEKDHIHRVLDKITDTLIHLMAKAGLTLQQQHQRLAQLLLILSHIRHMSNKGMEHLYSMKCKNVVPLYDLLLEAADAHRLHAPTSRGGASVEETDQSHLATAGSTSSHSLQKYYITGEAEGFPATA
4-OHT concentration at which mCherry reporter expression is activated (U87MG: 1066 cells): about 25 nM
endoxifen concentration at which mCherry reporter expression is activated (U87MG: 1066 cells): about 25 nM

B4: SB09652: ERT2 mutant transcriptional switch construct pSFFV: ZF10-1_p65_ERT2 domain (Table 23) (protein)
chain: B3 chain with L73I, L110V, N132D, M140L, S182P, M236A, H243L
modifications: ERT2 domain of ZF10-1_p65_ERT2 construct
fold activation and induced mCherry levels compared to WT (SB03422) [4]: highest fold activation and induced mCherry levels
endoxifen concentration at which IL-12 expression is induced [5]: 0.1 nM
